{"source": "paper PMC3139607", "about": "“Broad-Spectrum Inhibition of HIV-1 by a Monoclonal Antibody Directed against a gp120-Induced Epitope of CD4” (PLoS ONE, 2011)", "molecular_target": "T1, MAb DB81 (Mus musculus)", "T1 construct": "IgH V1-39*01, D2-2*01, J3*01; IgK V6-17*01, J2*01; Whole mouse IgG1 kappa; only the variable domains are printed; The first and last residues of each V domain lie under the PCR primers; also called C9 (parent hybridoma well); anti-human CD4-HIV-1-gp120 complex DB81 monoclonal antibody; source: mouse hybridoma (spleen cells of immunized Balb/c mice x P3X63Ag8.653 myeloma); purified from cell …", "T1 sequence (VH, as listed by the source, chain 1 of 2)": "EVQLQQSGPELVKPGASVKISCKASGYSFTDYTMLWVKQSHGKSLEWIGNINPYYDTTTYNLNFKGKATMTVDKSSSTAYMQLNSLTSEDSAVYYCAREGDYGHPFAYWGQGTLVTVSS", "T1 sequence (VL, as listed by the source, chain 2 of 2)": "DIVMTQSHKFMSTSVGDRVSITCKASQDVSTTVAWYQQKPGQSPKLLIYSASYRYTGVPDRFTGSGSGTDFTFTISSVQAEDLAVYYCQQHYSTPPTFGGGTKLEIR", "test": "SPR; MAb DB81 bound to the chip; synthetic 19-mer CD4 peptides as analytes (Figure 5)", "conditions": "both partners purified"}
{"binder": "GTWTCTVLQNQKKVEFKID (aa; 180-198 of membrane CD4 from Hominidae (Homo, P. troglodytes); also called human peptide; source: synthetic peptide (solid-phase F-moc, RP-HPLC purified))", "note": "[human CD4-derived 19-mer peptide GTWTCTVLQNQKKVEFKID]", "values": [{"measurement": "binding result", "result": "binds"}]}
